Measurements: article PMC2794155
Where a chain is given by its changes, count along the chain named. Like-named read-outs stand apart in the source and are kept apart here.

B1: 50-mer T:A homoduplex (dsDNA)
DNA 1: CTCATTCAGCATAACTTGATTTCTTTCAGCAGATAGAAACCATACTGATT
DNA 2: AATCAGTATGGTTTCTATCTGCTGAAAGAAATCAAGTTATGCTGAATGAG
B2: 50-mer T:G heteroduplex (dsDNA)
DNA 1: B1 DNA 1
DNA 2: B1 DNA 2 with A27G
B3: 37-mer G:C homoduplex (A/T in figures) (dsDNA)
DNA 1: ATTTCCTTCAGCAGATAGGAACCATACTGATTCACAT
DNA 2: ATGTGAATCAGTATGGTTCCTATCTGCTGAAGGAAAT
B4: 37-mer G:T heteroduplex (dsDNA)
DNA 1: B3 DNA 1
DNA 2: B3 DNA 2 with C19T

Experiments:
NHP6A [1] = target: T1, NHP6A (Saccharomyces cerevisiae RKY3032, UniProt P11632 1-93); assay: EMSA
T1 sequence (P11632 whole entry): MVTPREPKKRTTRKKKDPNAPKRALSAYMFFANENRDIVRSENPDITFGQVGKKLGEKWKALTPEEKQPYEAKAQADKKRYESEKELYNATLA

MSH2;MSH6 [2] = target: T2, MSH2;MSH6 (Saccharomyces cerevisiae;Saccharomyces …, UniProt P25847;Q03834 1-964;1-1242, |); assay: EMSA
T2 sequence (P25847 whole entry, chain 1 of 2): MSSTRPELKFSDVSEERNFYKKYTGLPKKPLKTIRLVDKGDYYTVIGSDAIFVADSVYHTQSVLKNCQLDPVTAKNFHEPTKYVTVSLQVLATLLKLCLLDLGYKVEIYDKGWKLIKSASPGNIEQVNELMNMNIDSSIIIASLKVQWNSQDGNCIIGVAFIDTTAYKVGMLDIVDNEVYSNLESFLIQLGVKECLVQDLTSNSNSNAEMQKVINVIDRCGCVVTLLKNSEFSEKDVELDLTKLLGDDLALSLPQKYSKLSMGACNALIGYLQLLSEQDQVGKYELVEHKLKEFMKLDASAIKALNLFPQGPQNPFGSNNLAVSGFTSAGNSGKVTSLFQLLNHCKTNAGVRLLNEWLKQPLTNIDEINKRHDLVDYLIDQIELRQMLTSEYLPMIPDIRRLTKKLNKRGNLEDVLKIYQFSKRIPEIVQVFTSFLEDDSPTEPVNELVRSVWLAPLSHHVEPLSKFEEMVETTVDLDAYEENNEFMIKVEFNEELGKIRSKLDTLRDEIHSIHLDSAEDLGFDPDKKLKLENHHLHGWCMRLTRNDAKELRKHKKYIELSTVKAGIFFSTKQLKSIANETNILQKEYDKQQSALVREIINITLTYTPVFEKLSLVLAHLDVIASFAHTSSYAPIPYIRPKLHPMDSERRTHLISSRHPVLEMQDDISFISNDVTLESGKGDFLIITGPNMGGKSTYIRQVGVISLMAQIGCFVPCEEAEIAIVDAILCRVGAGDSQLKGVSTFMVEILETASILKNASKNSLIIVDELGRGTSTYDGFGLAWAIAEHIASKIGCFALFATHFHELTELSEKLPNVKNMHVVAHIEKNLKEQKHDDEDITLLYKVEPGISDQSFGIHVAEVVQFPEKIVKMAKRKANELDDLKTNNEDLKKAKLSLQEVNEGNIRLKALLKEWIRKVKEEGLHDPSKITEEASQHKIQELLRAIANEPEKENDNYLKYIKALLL
T2 sequence (Q03834 whole entry, chain 2 of 2): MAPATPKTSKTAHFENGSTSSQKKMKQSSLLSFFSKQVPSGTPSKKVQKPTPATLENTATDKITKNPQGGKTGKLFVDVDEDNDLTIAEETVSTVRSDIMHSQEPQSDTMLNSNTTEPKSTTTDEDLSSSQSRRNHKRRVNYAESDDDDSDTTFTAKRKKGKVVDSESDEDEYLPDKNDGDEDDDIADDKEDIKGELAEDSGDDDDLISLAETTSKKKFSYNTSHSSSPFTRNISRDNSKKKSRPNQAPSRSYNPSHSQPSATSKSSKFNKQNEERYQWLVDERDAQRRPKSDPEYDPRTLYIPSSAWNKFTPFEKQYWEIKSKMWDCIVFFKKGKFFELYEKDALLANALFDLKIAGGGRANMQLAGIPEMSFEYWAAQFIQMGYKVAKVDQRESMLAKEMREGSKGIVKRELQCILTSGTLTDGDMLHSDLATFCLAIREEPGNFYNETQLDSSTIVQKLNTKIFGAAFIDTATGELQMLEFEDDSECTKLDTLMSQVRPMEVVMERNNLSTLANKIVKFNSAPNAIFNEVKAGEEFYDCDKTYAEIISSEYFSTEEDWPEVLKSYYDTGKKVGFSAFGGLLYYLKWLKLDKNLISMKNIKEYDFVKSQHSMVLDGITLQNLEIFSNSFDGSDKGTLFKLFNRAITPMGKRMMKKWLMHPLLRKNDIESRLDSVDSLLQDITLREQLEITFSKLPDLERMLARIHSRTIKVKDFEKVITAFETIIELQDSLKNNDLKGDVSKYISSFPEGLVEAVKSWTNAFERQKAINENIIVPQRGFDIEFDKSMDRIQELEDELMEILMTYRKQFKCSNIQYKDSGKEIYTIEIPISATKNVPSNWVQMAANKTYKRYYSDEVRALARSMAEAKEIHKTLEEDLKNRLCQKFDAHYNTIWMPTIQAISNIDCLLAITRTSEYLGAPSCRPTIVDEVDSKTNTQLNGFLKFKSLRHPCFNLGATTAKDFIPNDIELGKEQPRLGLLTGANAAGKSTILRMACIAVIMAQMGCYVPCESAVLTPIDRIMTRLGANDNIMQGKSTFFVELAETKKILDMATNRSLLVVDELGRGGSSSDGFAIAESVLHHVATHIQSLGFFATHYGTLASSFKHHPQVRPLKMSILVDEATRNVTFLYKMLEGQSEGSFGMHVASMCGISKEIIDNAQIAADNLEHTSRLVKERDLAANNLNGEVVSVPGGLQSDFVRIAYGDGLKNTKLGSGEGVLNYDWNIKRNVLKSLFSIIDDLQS

MSH2;MSH6 F337A = MSH2;MSH6 F337A (Saccharomyces cerevisiae;Saccharomyces …, UniProt P25847;Q03834 1-964;1-1242, |F337A); assay: EMSA
Chain of MSH2;MSH6 F337A (P25847 whole entry, chain 1 of 2): as the sequence (P25847 whole entry, chain 1 of 2) above
Chain of MSH2;MSH6 F337A (Q03834 whole entry F337A, chain 2 of 2): as the sequence (Q03834 whole entry, chain 2 of 2) above, with F337A counted along it

MSH2;MSH6 [3] = target: T2, MSH2;MSH6; assay: EMSA; remark: listed apart in the source
NHP6A;MSH2;MSH6 = NHP6A;MSH2;MSH6 (Saccharomyces cerevisiae …, UniProt P11632;P25847;Q03834 1-93;1-964;1-1242, ||); assay: EMSA supershift
Chain of NHP6A;MSH2;MSH6 (P11632 whole entry, chain 1 of 3): as the sequence (P11632 whole entry) above
Chain of NHP6A;MSH2;MSH6 (P25847 whole entry, chain 2 of 3): as the sequence (P25847 whole entry, chain 1 of 2) above
Chain of NHP6A;MSH2;MSH6 (Q03834 whole entry, chain 3 of 3): as the sequence (Q03834 whole entry, chain 2 of 2) above

NHP6A [4] = target: T1, NHP6A; assay: EMSA; remark: listed apart in the source

Binder	binding result (NHP6A [1])	binding result (NHP6A [4])	also measured
B1	binds		binding result (MSH2;MSH6 [2]): binds; binding result (MSH2;MSH6 F337A): no binding
B2	binds		binding result (MSH2;MSH6 [3]): binds; binding result (NHP6A;MSH2;MSH6): binds
B3		binds	
B4		binds	
